The data set concerns Escherichia coli TOP10. Description: shrunken log2 fold change of peptide-encoding DNA abundance (4.5 h post-induction vs induction); higher = less antimicrobial activity (less host growth inhibition). The following applies: time post-induction: 4.5 h; library: site-saturation at positions 5, 18, 19, 20.

The values that follow come from the supplement of paper PMC9112550, “Optimization of the antimicrobial peptide Bac7 by deep mutational scanning” (BMC Biology, 2022).
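Note: peptides expressed intracellularly from a pBAD plasmid library in pooled LB shake-flask culture, induced with 0.3% L-arabinose, DNA abundance read by NGS, three biological replicates, DESeq2 with apeglm shrinkage.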

Turning to RRIRDRPPRLPRPRPRPNLKPRP, the “shrunken log2 fold change” value stood at 0.114.
Regarding RRIRWRPPRLPRPRPRPIVMPRP, the “shrunken log2 fold change” value is -0.154.
Turning to RRIRTRPPRLPRPRPRPKWAPRP, the “shrunken log2 fold change” value amounted to 0.0541.
Consider RRIRERPPRLPRPRPRPGTIPRP, for which the “shrunken log2 fold change” value is -0.386.
RRIRPRPPRLPRPRPRPFTDPRP: the “shrunken log2 fold change” value was -0.247.
On to RRIRCRPPRLPRPRPRPPSKPRP, for which the “shrunken log2 fold change” value came to 0.133.
As for RRIRMRPPRLPRPRPRPMWTPRP, the figure is 0.038; as for RRIRVRPPRLPRPRPRPCKIPRP, -0.376.
On to RRIRYRPPRLPRPRPRPKDAPRP, for which the “shrunken log2 fold change” value was -0.0259.
As for RRIRNRPPRLPRPRPRPMHWPRP, the figure is 0.0477.
For RRIRIRPPRLPRPRPRPERHPRP, the “shrunken log2 fold change” value amounted to 0.0733.
For the sequence RRIRPRPPRLPRPRPRPETLPRP, the “shrunken log2 fold change” value is -0.0144.
With RRIRSRPPRLPRPRPRPDDEPRP, the “shrunken log2 fold change” value turned out to be 0.0222.
For the sequence RRIRPRPPRLPRPRPRPRGIPRP, the “shrunken log2 fold change” value is -0.176.
In the case of RRIRRRPPRLPRPRPRPGCHPRP it was 0.119; in that of RRIRVRPPRLPRPRPRPEDSPRP, 0.0654.
In the case of RRIRLRPPRLPRPRPRPRAWPRP it was 0.41.
Take RRIRRRPPRLPRPRPRPPVMPRP: the “shrunken log2 fold change” value was determined as 0.403.
Consider RRIRTRPPRLPRPRPRPAMHPRP, for which the “shrunken log2 fold change” value is 0.289.
As for RRIRYRPPRLPRPRPRPESPPRP, the figure is -0.0215; as for RRIRVRPPRLPRPRPRPKGQPRP, 0.147; as for RRIRIRPPRLPRPRPRPWIMPRP, -0.735.
On to RRIRIRPPRLPRPRPRPIYMPRP, for which the “shrunken log2 fold change” value was found to be 0.00602.
With RRIRCRPPRLPRPRPRPQKWPRP, the “shrunken log2 fold change” value is -0.568.
In the case of RRIRWRPPRLPRPRPRPGCRPRP, the “shrunken log2 fold change” value is 0.417.
As for RRIRTRPPRLPRPRPRPQDPPRP, the figure is 0.167; as for RRIRARPPRLPRPRPRPEFVPRP, 1.05.
For RRIRVRPPRLPRPRPRPSMEPRP, the “shrunken log2 fold change” value was -0.159.
On to RRIRVRPPRLPRPRPRPEHVPRP, for which the “shrunken log2 fold change” value was 0.0447.
Regarding RRIRGRPPRLPRPRPRPFTTPRP, the “shrunken log2 fold change” value is 0.0423.
For RRIRMRPPRLPRPRPRPPAKPRP, the “shrunken log2 fold change” value was 1.06.
As for RRIRRRPPRLPRPRPRPMFSPRP, the “shrunken log2 fold change” value is -0.0418.
In the case of RRIRKRPPRLPRPRPRPDANPRP it was -0.0872.
With RRIRARPPRLPRPRPRPLMCPRP, the “shrunken log2 fold change” value is 0.0392.
For RRIRCRPPRLPRPRPRPGIAPRP, the “shrunken log2 fold change” value is 0.201.
In the case of RRIRMRPPRLPRPRPRPWAVPRP it was 0.396; in that of RRIRIRPPRLPRPRPRPREPPRP, 0.183.
Consider RRIRFRPPRLPRPRPRPVVDPRP, for which the “shrunken log2 fold change” value was -0.232.
RRIRERPPRLPRPRPRPESRPRP: the “shrunken log2 fold change” value is -0.0773.
Regarding RRIRERPPRLPRPRPRPIPPPRP, the “shrunken log2 fold change” value is 0.0452.
As for RRIRGRPPRLPRPRPRPISSPRP, the figure is 0.393; as for RRIRPRPPRLPRPRPRPNPMPRP, -0.211.
On to RRIRARPPRLPRPRPRPYRKPRP, for which the “shrunken log2 fold change” value is -0.502.
For the sequence RRIRVRPPRLPRPRPRPQACPRP, the “shrunken log2 fold change” value was found to be 1.56.
For RRIRQRPPRLPRPRPRPSCNPRP, the “shrunken log2 fold change” value is -0.683.
On to RRIRHRPPRLPRPRPRPEPGPRP, for which the “shrunken log2 fold change” value is -0.044.
Regarding RRIRQRPPRLPRPRPRPKWRPRP, the “shrunken log2 fold change” value turned out to be 0.0839.
As to RRIRLRPPRLPRPRPRPFMLPRP, the “shrunken log2 fold change” value was -0.356.
For the sequence RRIRVRPPRLPRPRPRPMREPRP, the “shrunken log2 fold change” value came to 0.689.
Consider RRIRPRPPRLPRPRPRPQDRPRP, for which the “shrunken log2 fold change” value is -0.0277.
As for RRIRSRPPRLPRPRPRPDRQPRP, the figure is -0.0702.
Regarding RRIRPRPPRLPRPRPRPFDSPRP, the “shrunken log2 fold change” value was -0.0336.
Regarding RRIRIRPPRLPRPRPRPGVQPRP, the “shrunken log2 fold change” value was -0.00174.
As to RRIRRRPPRLPRPRPRPMIFPRP, the “shrunken log2 fold change” value was -0.241.
Take RRIRERPPRLPRPRPRPSWLPRP: the “shrunken log2 fold change” value worked out at 0.177.
Turning to RRIRMRPPRLPRPRPRPGRYPRP, the “shrunken log2 fold change” value was determined as 0.0164.
As for RRIRWRPPRLPRPRPRPHRNPRP, the “shrunken log2 fold change” value is -0.255.
Turning to RRIRARPPRLPRPRPRPHKDPRP, the “shrunken log2 fold change” value came out at 0.0954.
RRIRMRPPRLPRPRPRPFEKPRP: the “shrunken log2 fold change” value stood at 0.00408.
For the sequence RRIRPRPPRLPRPRPRPTDQPRP, the “shrunken log2 fold change” value was 0.399.
Consider RRIRVRPPRLPRPRPRPMLFPRP, for which the “shrunken log2 fold change” value was -0.329.
Consider RRIRARPPRLPRPRPRPTEGPRP, for which the “shrunken log2 fold change” value was 0.941.
For RRIRVRPPRLPRPRPRPRSNPRP, the “shrunken log2 fold change” value is 0.125.
As to RRIRCRPPRLPRPRPRPQSCPRP, the “shrunken log2 fold change” value was 0.0547.
As for RRIRWRPPRLPRPRPRPAHQPRP, the figure is 0.176; as for RRIRHRPPRLPRPRPRPRYSPRP, -0.234.
With RRIRSRPPRLPRPRPRPVDKPRP, the “shrunken log2 fold change” value was -0.175.
As for RRIRLRPPRLPRPRPRPLMPPRP, the figure is -0.0944; as for RRIRLRPPRLPRPRPRPPVAPRP, 0.387.
As for RRIRQRPPRLPRPRPRPIKEPRP, the figure is -0.023.
RRIRCRPPRLPRPRPRPDCIPRP: the “shrunken log2 fold change” value is -0.027.
For RRIRLRPPRLPRPRPRPEAMPRP, the “shrunken log2 fold change” value turned out to be 0.284.
As for RRIRKRPPRLPRPRPRPRKTPRP, the “shrunken log2 fold change” value came out at 0.303.
For the sequence RRIRQRPPRLPRPRPRPRALPRP, the “shrunken log2 fold change” value was 0.125.
As to RRIRGRPPRLPRPRPRPLIMPRP, the “shrunken log2 fold change” value stood at 0.206.
On to RRIRKRPPRLPRPRPRPLLMPRP, for which the “shrunken log2 fold change” value is -0.109.
With RRIRHRPPRLPRPRPRPTSAPRP, the “shrunken log2 fold change” value worked out at 0.0939.
Take RRIRQRPPRLPRPRPRPNNIPRP: the “shrunken log2 fold change” value was -0.732.
In the case of RRIRKRPPRLPRPRPRPENIPRP it was -0.0813; in that of RRIRIRPPRLPRPRPRPQCEPRP, -0.0436.
As to RRIRYRPPRLPRPRPRPDAPPRP, the “shrunken log2 fold change” value is -0.0708.
As for RRIRFRPPRLPRPRPRPWNVPRP, the “shrunken log2 fold change” value is -0.157.
For the sequence RRIRGRPPRLPRPRPRPRAKPRP, the “shrunken log2 fold change” value is 1.22.
In the case of RRIRTRPPRLPRPRPRPSMEPRP it was -0.136; in that of RRIRQRPPRLPRPRPRPSRRPRP, 0.0103; in that of RRIRIRPPRLPRPRPRPARTPRP, 0.0599.
Consider RRIRARPPRLPRPRPRPMQGPRP, for which the “shrunken log2 fold change” value stood at 0.601.
Consider RRIRHRPPRLPRPRPRPETRPRP, for which the “shrunken log2 fold change” value was determined as 0.013.
Regarding RRIRLRPPRLPRPRPRPQSVPRP, the “shrunken log2 fold change” value was -0.325.
As for RRIRERPPRLPRPRPRPNRRPRP, the figure is -0.0103.
Turning to RRIRARPPRLPRPRPRPIMLPRP, the “shrunken log2 fold change” value is -0.43.
As for RRIRHRPPRLPRPRPRPSLYPRP, the figure is 0.07; as for RRIRCRPPRLPRPRPRPFIDPRP, -0.464.
In the case of RRIRWRPPRLPRPRPRPLEYPRP, the “shrunken log2 fold change” value was -0.152.
As for RRIRIRPPRLPRPRPRPQWNPRP, the “shrunken log2 fold change” value is -0.316.
In the case of RRIRVRPPRLPRPRPRPKWMPRP it was -0.0468; in that of RRIRVRPPRLPRPRPRPCQYPRP, -0.53; in that of RRIRMRPPRLPRPRPRPPVKPRP, 0.512.
As for RRIRARPPRLPRPRPRPFKMPRP, the figure is -0.253.
For RRIRARPPRLPRPRPRPVCYPRP, the “shrunken log2 fold change” value is -0.128.
As for RRIRCRPPRLPRPRPRPGKFPRP, the figure is -0.188; as for RRIRIRPPRLPRPRPRPKQCPRP, -0.178; as for RRIRYRPPRLPRPRPRPPPDPRP, 0.7.
As for RRIRRRPPRLPRPRPRPLESPRP, the figure is 0.0173; as for RRIRKRPPRLPRPRPRPEQNPRP, 0.949; as for RRIRVRPPRLPRPRPRPYLVPRP, -0.511.
Regarding RRIRERPPRLPRPRPRPCWWPRP, the “shrunken log2 fold change” value was 0.288.
On to RRIRRRPPRLPRPRPRPDPPPRP, for which the “shrunken log2 fold change” value is 0.443.
On to RRIRWRPPRLPRPRPRPKGQPRP, for which the “shrunken log2 fold change” value is -0.0148.
Turning to RRIRKRPPRLPRPRPRPWDFPRP, the “shrunken log2 fold change” value was determined as 0.953.
For RRIRVRPPRLPRPRPRPWNDPRP, the “shrunken log2 fold change” value was -0.0722.
Take RRIRARPPRLPRPRPRPSVKPRP: the “shrunken log2 fold change” value stood at 0.133.
As for RRIRFRPPRLPRPRPRPKTCPRP, the “shrunken log2 fold change” value was found to be 0.0353.
On to RRIRTRPPRLPRPRPRPWNGPRP, for which the “shrunken log2 fold change” value is -0.199.
Turning to RRIRQRPPRLPRPRPRPKGMPRP, the “shrunken log2 fold change” value was 0.0157.
As for RRIRERPPRLPRPRPRPWTTPRP, the figure is -0.0139.
In the case of RRIRARPPRLPRPRPRPQSPPRP, the “shrunken log2 fold change” value is -0.0671.
Regarding RRIRHRPPRLPRPRPRPCGQPRP, the “shrunken log2 fold change” value worked out at 0.015.
Take RRIRMRPPRLPRPRPRPPSWPRP: the “shrunken log2 fold change” value stood at 0.245.
On to RRIRYRPPRLPRPRPRPFCHPRP, for which the “shrunken log2 fold change” value was -0.239.
In the case of RRIRLRPPRLPRPRPRPTGNPRP it was -0.044.
As for RRIRGRPPRLPRPRPRPEEIPRP, the figure is 0.842; as for RRIRKRPPRLPRPRPRPCAYPRP, -0.0475.
With RRIRMRPPRLPRPRPRPPLDPRP, the “shrunken log2 fold change” value is 1.03.
In the case of RRIRLRPPRLPRPRPRPECGPRP, the “shrunken log2 fold change” value was determined as 0.372.
